This data set in a line: soluble on expression in E. coli; label from the status in PepcDB or PDB records.
For the sequence “MAAGTFTAQNKVRPGVYINFKSEPQAAGTLGERGIVSMPLILSWGEPGKMITIEAGDDVFPKLGYSIMDAQLRLINEALKRAKTLLLYRLNAGTKAAVTVGNLTVTAKWGGARGNDITLVIQENIDDETKFDVSTLVDGAELDKQTVSDIAGLAANDWVIFSGTGALTETAGAPLINGSDGAVTNQAYIDYLAAVEIFDFNTIALPSTDDALKATFTAFAKRLRDDEGKKIQVVLENYPAADYEGVISVKNGVVLADGTILTAAQATAWVAGATAGARVNESLTYQGYDEAVDVAPRYTNAQIIAALQAGEFLFTASDNQALVEQDINTLTSFTADKGKQFAKNRVIRVLDGINNDFVRIFSKFYIGKVSNNADGRNLLKSECINYMNTLQDIDAIKNFDGQTDLTVQSGNDVDAVYIEAYAWPVDSIEKIYVRVRIKLEHHHHHH”, the “soluble on expression in E. coli” value was “soluble”. On to “MKKVLIVLLVLLTSFGFSENLDKYESKRVFDKSIQFILDGNYEKLKNDTEMSRVAGNITDAAEAIFAKARPMLKEHKYKVIDVKEKKDISELTVKVEYKVYENVSQEESENFMIKFQEELDEETEEAADIYDKKVQKLLQDNIKSKGIIKDKIIKVYMDKEYGYWDLATDKNEDLLLTLFSVIDSLGLY”, for which the “soluble on expression in E. coli” value is reported as “not soluble”.

On to “MVPSEGTWVYVVNLRRVYWGRRTRRAIRAVRMVREFVRRHTKADEVVIDNELNNYIWSRSREKPPARVKIIVSIREEEPEEGGERIRKAVVRLAGRKLRPGRYKG”, for which the “soluble on expression in E. coli” value is listed as “soluble”. “MGSDKIHHHHHHMNELQNFNFEGNEVRTVLINDEPYFVGKDVATAIGYQNTRKAIKDHVKTKYMREERIVTPSGTQTMTVISEPGIYQLAGQSKLPTAEPFQDWIYEEVLPSIRKHGAYMTDEKIEEALLNPDTIISLATQLKNEREKVEVERNGRLIAEQRVEELQPKADYYDQILSNKGVVTVTSIAKNYGMTAPELNKLLNRLGVQYSQSGSWYLYKKYQKNGYTHTIPVPYSHRDGRPDIKPQTKWTQKGHIFIYQLLKEHGILPMIEMKDESAV”: the “soluble on expression in E. coli” value was “not soluble”.

Turning to “MSLIRMALAAVCALLFSITTMTPFVQASEITISGSTSVARIMDVLAEKYNQQHPETYVAVQGVGSTAGISLLKKGVADIAMTSRYLTESEAQNTLHTFTLAFDGLAIVVNQANPVTNLTREQLYGIYKGQITNWKQVGGNDQKIAVVTREASSGTRYSFESLMGLTKTVKDREVSDVAPTALVVNSNSMMKTLVNHNTQAVGFISIGSVDKSVKAIQFEKADPTSDNIAKHTYQLSRPFLILHYSDNADEQTKEFIAFLKSESAKKLIVEYGYIMPSDVEEGGSHHHHHH”, the “soluble on expression in E. coli” value was “soluble”. For “GFIDSHVHIESSMVSPKEFARAVISRGTTTIIVDPHEIANVCGMDGIKYMMEETKNMPLDVFFMLSSCVPATSFETSGAVLKAEDLKELIDSDRVLGLGEMMNYPGVLSREEEVLNKLKLAGSYNKIVDGHAPSVRGNELNAYNLAGIKTDHECSSIEEMNEKIRNGMYIAIREGSAAKNLDILIKGVNAKNERRIMFCADDRHPDDILKSGHMDNCVRRAIYNGIENTAAIRMASINAAECYKLERVGAIAPSYKADLVVLEDLKDVKVNMVIKSGEVVFKDNKHLKDMGSKSDI” the value was “not soluble”; for “MKEIIFDDIGSYPLPEGVSREWVQNAFKTRAEDEKLFTVINDAFQQKIDAGVEVPTYPQYQDMNEQFLKVIRDSNCTDSPFEVKLECARIEELEAIETVAKAYKEKFGETLKVRICVTGPTELYLKEFGGTRYTDIYTLFAKSINRFVRNSMKSAKHFKIATVSIDEPSIGLNPELAFDENDVISALTEASKAASKWGADVEIHLHSPLYYNYACETTTINVIGVESAGTPSYLELIDKKMLEDTDSFLRIGIARTDIFSLAGILNEKYCTNIWKDQQYIPEIVSQLETPEVIEKRLKLAYRRFGSLIKYVGPDCGLGSWPNQRIAFILLSNVAQGIKNFRENLLEHHHHHH”, “soluble”; for “MDGEELREDLKEKGKTMDNDLKKSLKEAPSESYCYVLINPYVLDKDVREVDLATFLSSIFYVGKGKGERAMAYFKDACGNIQGSRKLTTIDQAWNKKGFVYKHIIWRPIIENLALAREAAMIFFFKNLAGKSNFTNKYNGSFKGESAFWSREEKCNYGVYLLETIHRSIQTNGCETVKKEDVAPRAAIQQSPRL”, “not soluble”.

In the case of “MIKLENEVLLVEMKTAGAELTRIFHKDTGLEYLWNADSKFWGRHSPVLFPTVGRLVEDTYLVDGKPYHLGQHGFARDRDFQVVEQTEKSVRFELDADEDSLAVYPYKFKLSIIYTIEKNTVAVSYEVENTDNKRIYFSIGAHPAFNLPLTDGTTFEDYYLDFGTEENLETLCLEGPYRSGEIKKVVDEAARYLPLNYDLFKNDALIFEALKQKEMTIKSDKTPHFVKVSFPEFPFVGVWTAKAGTPFLCIEPWYGIADGAGESVELRDKAGIEHLEPEAVFASEYEITVGLEHHHHHH”, the “soluble on expression in E. coli” value is “soluble”.

In the case of “MKLDFSSGAKPLWSQMANIIKKRIEDGEYEIGCTLPSEMSFADEFNVSRITVRQALNRLMTDGYILRQRGKGTIVKRDKTSFSTRMQSSFKQLQDEYDKTTKTLISVNNVKASEDVAEVFDINPGDNVIMLERSVESKGKIITIYHNYISPKVGASLKDDFTGSFYKYLEMKGFYITSAKEVISAKISTAKDKEVFGFSNDRAMLLKTKYGYSDGVPVEITYGTYIADDYNIVIELV”, the “soluble on expression in E. coli” value is “not soluble”.

As for “MPTVSVKRDLLFQALGRTYTDEEFDELCFEFGLELDEITSEKEIISKEQGNVKAAGASDVVLYKIDVPANRYDLLCLEGLVRGLQVFKERIKAPVYKRVMPDGKIQKLIITEETAKIRPFAVAAVLRNIKFTKDRYDSFIELQEKLHQNICRKRALVAIGTHDLDTLSGPFTYTAKRPSDIKFKPLNKTKEYTACELMNIYKTDNHLKHYLHIIENKPLYPVIYDSNGVVLSMPPIINGDHSRITVNTRNIFIECTGTDFTKAKIVLDIIVTMFSEYCENQFTVEAAEVVFPNGKSHTFPELAYRKEMVRADLINKKVGIRETPENLAKLLTRMYLKSEVIGDGNQIEIEIPPTRADIIHACDIVEDAAIAYGYNNIQMTLPKTYTIANQFPLNKLTELLRHDMAAAGFTEALTFALCSQEDIADKLGVDISATKAVHISNPKTAEFQVARTTLLPGLLKTIAANRKMPLPLKLFEISDIVIKDSNTDVGAKNYRHLCAVYYNKNPGFEIIHGLLDRIMQLLDVPPGEDKGGYVIKASEGPAFFPGRCAEIFARGQSVGKLGVLHPDVITKFELTMPCSSLEINIGPFL”, the “soluble on expression in E. coli” value is on record as “soluble”. Take “NSSAQLLELCTEHGLSISSLMMANELSLASEEEVKAKLWNIWQTMKTCIERGYQKEGILPGGLKLRRRAPALYRRLKAEGRNNVDPLTAMDWVDLFALSVNEQNAAGDRVVTAPTNGAAGIIPAVLCYYDTFVQEVDIDVCARYLLTAAAIGILYKKNASISGAEVGCQGEVGVACSMAAGALTEIMGGTVEHVENAAEIGMEHNLGLTCDPVGGLVQVPCIERNAMGAIKAINASRMALRGDGNHKVSLDKVIKTMMDTGKDMRSKYKETAKGGLAVN”: the “soluble on expression in E. coli” value is listed as “not soluble”. On to “MGSSHHHHHHGKTIFVIVPTNEEQVAFLEALAKQDELNFDWQNPPTEPGQPVVILIPSDMVEWFLEMLKAKGIPFTVYVEEGGSENLYFQGGGGGGAASLGDFGQEYQAIMESAGKGFGMLYRDMTAPPASYQWECVEDLSLQYSVAYASLTEPYTVNVLTSMITVTRTESTPGVSYNLIGIACTYDGNCGDLKRGNLLTFSLRKDLIIIVTGSVLSNGITNFLPVSYYVVQLASSCSSANIANVTRPFSVGASSVWMQLWQ”, for which the “soluble on expression in E. coli” value is on record as “not soluble”.

“AELTCTDVSGLTAEEIQMRESLQYTDHSPYPDKTCANCQLYVPAESPDQCGGCQLIKGPIHPNGYCTSWVQKAT”: the “soluble on expression in E. coli” value was “soluble”.

In the case of “MPSYTVTVATGSQWFAGTDDYIYLSLVGSAGCSEKHLLDKPFYNDFERGAVDSYDVTVDEELGEIQLVRIEKRKYWLNDDWYLKYITLKTPHGDYIEFPCYRWITGDVEVVLRDGRAKLARDDQIHILKQHRLKELETRQKQYRWMEWNPGFPLSIDAKCHKDLPRDIQFDSEKGVDFVLNYSKAMENLFINRFMHMFQSSWNDFADFEKIFVKISNTISERVMNHWQEDLMFGYQFLNGCNPVLIRRCTELPEKLPVTTEMVECSLERQLSLEQEVQQGNIFIVDFELLDGIDANKTDPCTLQFLAAPICLLYKNLANKIVPIAIQLNQIPGDENPIFLPSDAKYDWLLAKIWVRSSDFHVHQTITHLLRTHLVSEVFGIAMYRQLPAVHPIFKLLVAHVRFTIAINTKAREQLICECGLFDKANATGGGGHVQMVQRAMKDLTYASLCFPEAIKARGMESKEDIPYYFYRDDGLLVWEAIRTFTAEVVDIYYEGDQVVEEDPELQDFVNDVYVYGMRGRKSSGFPKSVKSREQLSEYLTVVIFTASAQHAAVNFGQYDWCSWIPNAPPTMRAPPPTAKGVVTIEQIVDTLPDRGRSCWHLGAVWALSQFQENELFLGMYPEEHFIEKPVKEAMARFRKNLEAIVSVIAERNKKKQLPYYYLSPDRIPNSVAI”, the “soluble on expression in E. coli” value is given as “soluble”. In the case of “MSLSKFAERLQTVANKPEVFQKFSRGLERESLRYTPEGALTQTPHPKALGAALTHRWITTDFAESLLEFITPVSHEVDTLLAQMSDIHHFAQTKLGDEKLWPLSMPCYVGSEEGIVLAQYGSSNTGKMKTLYREGLKRRYGSLMQIISGVHFNFSFPESFWDALFGEQEESARQASKSAAYFGVIRNYYRFGWLIPYLFGASPALCSSFLQGRKTDLPFESIGKTLYLPYATSLRLSDLGYTNSAQSVLQIGFNSIEQYLQGLNEAIRTPSAEFAKLGVKVEGEYRQLNSNVLQIENELYAPIRPKRVTQSGERPSQALARAGVEYIEVRSLDVNPFSPIGINEDQVRFLDLFLAWTALSDSDPMDGCELACWRDNWRKVVLEGRKPGLELQIGCHGEVLTLQAWAKRVFADLRVIAETMDAALGGDAYQAVCAKLETWIENPELTLSAQILAEIKQHGGLGKTGCALGNEYRAVNLQHQYQFYSQDEMEQEVRRSTQAQADIEAKETLNFDAYLTQYFAYLQAVSEGGSHHHHHH”, the “soluble on expression in E. coli” value is listed as “soluble”. In the case of “PYNKNGFKVGMKLEGVDPEHQSVYCVLTVAEVCGYRIKLHFDGYSDCYDFWVNADALDIHPVGWCEKTGHKLHPPKGYKEEEFNWQTYLKTCKAQAAPKSLFENQNITVIPSGF” it was “soluble”.

Take “MKIDTNFLCDLWMALFQFSNDENINEKECTALVDIMSLVEKVLVLKLQDDVPNIVKILAVLTDFGDSELPHSMDSLLRAYEPDLDNPIKKVA”: the “soluble on expression in E. coli” value is “not soluble”. With “MGSDKIHHHHHHVQHDQAPEVYSDLIQMVWALFTPSTVNFFSKGLCANAPFIMEMVDFEALKTVEEDVYLNAYNLTDHKMAIFGKDILDYEHFGATLAYPFIYPPAKVDGKLYLEGAAEDAFNFQGLLEHDEGIRTVVVFDAFGNEGYIQDPPNLWQAWGQNLILPLISLTRHDLAFFEHMLDDWNESHPARQDVELIKVTFPIPPEWLPTALDWSRSNLERMFELGYETGKKFVAEKGVRLGATLPPKPTPAKGRGGAAKKDDDAMFGGASIG”, the “soluble on expression in E. coli” value was “not soluble”. On to “SNAMKPENKIPVLTRLSDEMTAVVNFQQPGLPPWPADGDIETQRQYYLLERRFWNADAPSMTTRTCAVPTPYGDVTTRLYSPQPTSQATLYYLHGGGFILGNLDTHDRIMRLLARYTGCTVIGIDYSLSPQARYPQAIEETVAVCSYFSQHADEYSLNVEKIGFAGDSAGAMLALASALWLRDKHIRCGNVIAILLWYGLYGLQDSVSRRLFGGAWDGLTREDLDMYEKAYLRNDEDRESPWYCLFNNDLTRDVPPCFIASAEFDPLIDDSRLLHQTLQAHQQPCEYKMYPGTLHAFLHYSRMMTIADDALQDGARFFMARMKTPR”, for which the “soluble on expression in E. coli” value is reported as “soluble”.
